Read-outs that look alike come from different tables or passages of the source.
Columns and labels:
[1] = target: Trichoplusia ni (Tni) beta-tubulin (Trichoplusia ni (endogenous in Tni cells)); assay: cryo-EM structure
[2] = target: Trichoplusia ni (Tni) beta-tubulin (Trichoplusia ni (endogenous in Tni cells)); assay: cryo-EM structure; remark: listed apart in the source

- stoichiometry N [1]: 2
- stoichiometry N [2]: 2
Substance: Trichoplusia ni (Tni) beta-tubulin (natural protein)

From doi:10.64898/2025.12.30.697104
